We go through one molecule from patent US20050036993A1, “Immune activation by double-stranded polynucleotides” (priority 1998, published 2005).

Assay [1] has as its system MHC Class I, MHC Class II. Nature of the assay: Northern analysis of MHC Class I and Class II RNA after infection or transfection of FRTL-5 cells. The following applies: 5 Tg nucleic acid transfected (Lipofectamine Plus), HSV-2 infection or KIFN, Northern 48 hours after treatment.
The test system of a further assay is NF-PB. Description: Gel shift analysis with NF-PB consensus ODN, nuclear protein of FRTL-5 cells. It is filed as cell-based, rat. Particulars: nuclear extracts; dsDNA within 3 hours. Here is the method:
Nuclear Extracts—A previously employed method to prepare nuclear extracts (S. Ikuyama et al., Mol. Endocrinol. 6:1701-1715 (1992)) was modified to prepare extracts from small numbers of cells. Cells were washed, scraped in 1 ml PBS, pelleted in a microfuge, and resuspended in five volumes of Buffer A (10 mM HEPES-KOH, pH 7.9, 10 mM KCl, 1.5 mM MgCl2, 0.1 mM EDTA) containing 0.3 M sucrose and 2% Tween 40. To release nuclei, they were frozen and thawed once, then repetitively pipetted, 50 to 100 times, using a micropipet with a yellow tip (200 T1 capacity). Samples were overlayed on 1 ml of 1.5 M sucrose in Buffer A and microfuged for 10 min at 4EC. Pelleted nuclei were washed with 1 ml Buffer A, centrifuged for 30 sec, then resuspended in 50 T1 of Buffer B (20 mM HEPES-KOH, pH 7.9, 420 mM NaCl, 1.5 mM MgCl2, 0.2 mM EDTA, 25% glycerol). Samples were placed on ice for 20 min with occasional vortexing and centrifuged for 20 min at 4EC. The supernatant fraction containing nuclear protein was aliquoted and stored at −70 C. […]
Electrophoretic Mobility Shift Analysis (EMSA)—Oligonucleotides were labeled with [K-^32P]ATP using T4 polynucleotide kinase, then purified on 8% native polyacrylamide gels (S. Ikuyama et al., Mol. Endocrinol. 6:1701-1715 (1992); H. Shimura, et al., Mol. Endocrinol. 8:1049-69 (1994)). […] Mixtures were analyzed on 5% native polyacrylamide gels and autoradiographed. […]
In general terms: Mobility shift assays separate free from complexed probe on a gel.

In the next assay the test system is FRTL-5 rat thyroid cells. Particulars: literature; cited from earlier work.
Assay [2] relates to LMP2, TAP-1, invariant chain (Ii), HLA-DM, B7, CIITA, RFX5, IRF-1, PKR, IFN. Description: Northern analysis of genes responsible for antigen presentation in FRTL-5 cells. It is filed as cell-based, rat. Here is the method:
In some experiments, cells were treated with 100 U/ml rat KIFN for the last 48 hours of culture.
Transfection—All procedures used 10 cm dishes and transfection with Lipofectamine Plus (GIBCO BRL, Gaithersburg, Md.). […] Transfections with Lipofectamine (GIBCO BRL, Gaithersburg, Md.), with DEAE dextran, or using electroporation, performed as in Example 1, yielded the same results.
Nucleic Acids—The following polynucleotides were used in these experiments, both made by Pharmacia Biotech, Piscataway, N.J.: poly(dI)/poly(dC) and poly(I)/poly(C). The same results were obtained, however, using sonicated salmon sperm DNA (Stratagene, La Jolla, Calif.), bacterial DNA or calf thymus DNA (Sigma, St. Louis, Mo.), and FRTL-5 cell genomic DNA. […] Viral DNA from Human Herpes Simplex virus and viral DNA oligonucleotides from HIV, HTLV-1, Foamy virus, and cytomegalic virus (CMV) as well as the plasmid vectors pcDNA3 and pRc/RSV, used with or without methylation, also duplicated the results with the ds synthetic polynucleotides.
The probe for rat CIITA is a cloned rat Type III CIITA cDNA fragment in pcDNA3 (K. Suzuki et al., manuscript in preparation). EcoRI is used to release a 4098 bp fragment as the probe.

Assay [3] has as its system rat 90K tumor-associated immunostimulator. Description: Northern analysis of 90K tumor-associated immunostimulator RNA in FRTL-5 cells. It is filed as cell-based. Particulars: 5 Tg nucleic acid or 100 U/ml KIFN, Northern after 48 hours. The source says: 12: 19-33 (1998)). Filters were sequentially hybridized with the rat 90K, MHC Class I, MHC Class II, and GAPDH probes. […] The glyceraldehyde phosphate dehydrogenase (GAPDH) probe was cut from a pTRI-GAPDH-Rat template (Ambion, Tex.).

B1: KIFN: K-interferon (gamma interferon, character lost), rat recombinant, 100 U/ml (protein, UniProt P01581 23-156, looked up)
Interferon gamma: QGTLIESLESLKNYFNSSSMDAMEGKSLLLDIWRNWQKDGNTKILESQIISFYLRLFEVLKDNQAISNNISVIESHLITNFFSNSKAKKDAFMSIAKFEVNNPQIQHKAVNELIRVIHQLSPESSLRKRKRSRC
B1: the “MHC RNA levels / MHC expression (Class I and Class II)” value in assay [1] was “increases Class II more than Class I levels”. In addition, in the assay on NF-PB, the “binding of p50/p65 and p50 homodimer to consensus NF-PB oligonucleotide binding site” value is on record as “significantly lesser level”. Moreover, the cell cycle progression result in the assay on FRTL-5 rat thyroid cells is “inhibits progression”. The “expression of genes responsible for antigen presentation” value in assay [2] (5 Tg dsDNA or 100 U/ml KIFN, 3 to 72 hours) is on record as “induced”. Besides, the “induction of CIITA, RFX5 and IRF-1” value in assay [2] (100 U/ml KIFN) is reported as “induced”. Further, the “90K RNA levels” value in assay [3] is reported as “weaker”.
